Data: publication PMC4256095

Target: actin (UniProt P68135)
Assay: other fluorescence titration

recombinant human cofilin, sequence (P23528 whole entry): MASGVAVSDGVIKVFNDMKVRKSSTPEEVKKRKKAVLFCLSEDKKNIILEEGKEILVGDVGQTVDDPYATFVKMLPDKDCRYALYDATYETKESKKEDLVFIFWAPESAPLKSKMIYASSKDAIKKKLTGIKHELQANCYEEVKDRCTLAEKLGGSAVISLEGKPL

binding density (νcof) at 3 µM cofilin: > 0.9
Substance: recombinant human cofilin (from UniProt P23528 1-166) (natural protein)
